Measurements published in US20220056134A1 (Genentech, published 2022).
Residue numbers refer to the chain shown, from its start. Names may count otherwise.

B1: Parental anti-MET Fab (onartuzumab / 5D5) (Fab, V domains shown)
VH: EVQLVESGGGLVQPGGSLRLSCAASGYTFTSYWLHWVRQAPGKGLEWVGMIDPSNSDTRFNPNFKDRFTISADTSKNTAYLQMNSLRAEDTAVYYCATYRSYVTPLDYWGQGTLVTVSS
VL: DIQMTQSPSSLSASVGDRVTITCKSSQSLLYTSSQKNYLAWYQQKPGKAPKLLIYWASTRESGVPSRFSGSGSGTDFTLTISSLQPEDFATYYCQQYYAYPWTFGQGTKVEIK
notes: Tested as Fab
B2: anti-MET Fab variant CDR L3 P95A (Fab, V domains shown)
VH: B1 VH
VL: B1 VL with P101A
notes: Fab; variable domains only; Kabat numbering
B3: anti-MET Fab variant CDR L3 W96A (Fab, V domains shown)
VH: B1 VH
VL: B1 VL with W102A
notes: as for B2
B4: anti-MET Fab variant CDR L3 Y91A (Fab, V domains shown)
VH: B1 VH
VL: B1 VL with Y97A
notes: Fab; variable domains only
B5: anti-MET Fab variant CDR L3 Y91A:W96A (Fab, V domains shown)
VH: B1 VH
VL: B1 VL with Y97A, W102A
notes: as for B2
B6: anti-MET Fab variant CDR L3 Y91A:Y94A (Fab, V domains shown)
VH: B1 VH
VL: B1 VL with Y97A, Y100A
notes: as for B2
B7: anti-MET Fab variant CDR L3 Y92A (Fab, V domains shown)
VH: B1 VH
VL: B1 VL with Y98A
notes: as for B2
B8: anti-MET Fab variant CDR L3 Y94A (Fab, V domains shown)
VH: B1 VH
VL: B1 VL with Y100A
notes: as for B2
B9: Parental anti-IL-13 Fab (lebrikizumab) (Fab, V domains shown)
VH: EVTLRESGPALVKPTQTLTLTCTVSGFSLSAYSVNWIRQPPGKALEWLAMIWGDGKIVYNSALKSRLTISKDTSKNQVVLTMTNMDPVDTATYYCAGDGYYPYAMDNWGQGSLVTVSS
VL: DIVLTQSPDSLSVSLGERATINCRASKSVDSYGNSFMHWYQQKPGQPPKLLIYLASNLESGVPDRFSGSGSGTDFTLTISSLQAEDVAVYYCQQNNEDPRTFGGGTKVEIK
notes: Tested as Fab
B10: anti-IL-13 Fab variant CDR H3 D95A (Fab, name in Kabat numbering, V domains shown)
VH: B9 VH with D98A
VL: B9 VL
notes: as for B2
B11: anti-IL-13 Fab variant CDR H3 D95A:P99A (Fab, name in Kabat numbering, V domains shown)
VH: B9 VH with D98A, P102A
VL: B9 VL
notes: as for B2
B12: anti-IL-13 Fab variant CDR H3 P99A (Fab, name in Kabat numbering, V domains shown)
VH: B9 VH with P102A
VL: B9 VL
notes: as for B2
B13: anti-IL-13 Fab variant CDR L3 D94A (Fab, V domains shown)
VH: B9 VH
VL: B9 VL with D98A
notes: as for B2
B14: anti-IL-13 Fab variant CDR L3 D94A:R96A (Fab, V domains shown)
VH: B9 VH
VL: B9 VL with D98A, R100A
notes: Fab; variable domains only; Kabat numbering; also called D94: R96A double substitution
B15: anti-IL-13 Fab variant CDR L3 N92A (Fab, V domains shown)
VH: B9 VH
VL: B9 VL with N96A
notes: as for B2
B16: anti-IL-13 Fab variant CDR L3 R96A (Fab, V domains shown)
VH: B9 VH
VL: B9 VL with R100A
notes: as for B2

What was measured:
HER2-ECD (in house) [1] = target: HER2-ECD (in house) (UniProt P04626); assay: SPR (BIAcore T200), Fab captured on anti-Fab chip, HER2-ECD as analyte, 25 C, 1:1 model
HER2-ECD (in house) [2] = target: HER2-ECD (in house) (UniProt P04626); assay: SPR (refers to Table G3)
[3] = target: T1, MET-R Fc (R&D Systems, catalog number 8614-MT) (UniProt P08581 25-932); assay: SPR (BIAcore T200), Fab captured on anti-Fab chip, MET-R Fc as analyte, 25 C, 1:1 model
T1 construct: Bought reagent used as SPR analyte; not shown: Fc part of the bought fusion protein

[4] = target: T1, MET-R Fc (R&D Systems, catalog number …); assay: SPR (BIAcore T200), Fab captured on anti-Fab chip, MET-R Fc as analyte; n.d. = binding was not detected
IL-13 (in-house) [5] = target: T2, IL-13 (in-house) (UniProt P35225 35-146, limits assumed); assay: SPR (BIAcore T200), Fab captured on anti-Fab chip, IL-13 as analyte, 25 C, 1:1 model
T2 construct: SPR analyte

IL-13 (in-house) [6] = target: T2, IL-13 (in-house); assay: SPR (BIAcore T200), Fab captured on anti-Fab chip, IL-13 as analyte; n.d. = binding was not detected
IL-13 (in-house) [7] = target: T2, IL-13 (in-house); assay: SPR

Molecule	Kd [3] [nM]	koff [3] [s⁻¹]	kon [3] [M⁻¹ s⁻¹]	Kd (IL-13 (in-house) [5]) [nM]	koff (IL-13 (in-house) [5]) [s⁻¹]	kon (IL-13 (in-house) [5]) [M⁻¹ s⁻¹]	other results
anti-HER2 Fab variant CDR H3 W95D	–	–	–	–	–	–	Kd (HER2-ECD (in house) [1]): 36.5 nM; koff (HER2-ECD (in house) [1]): 0.00294 s⁻¹; kon (HER2-ECD (in house) [1]): 80000 M⁻¹ s⁻¹; fold change of KD against the unmodified parent (HER2-ECD (in house) [2]): 30 fold
B1	< 0.05	< 1e-05	179000	–	–	–	–
B2	< 0.06	< 1e-05	153000	–	–	–	–
B3	2.1	0.00017	84000	–	–	–	–
B4	0.8	6e-05	70000	–	–	–	–
B5	–	–	–	–	–	–	binding result [4]: no binding (tested: analyte up to 75 nM)
B6	–	–	–	–	–	–	binding result [4]: no binding (tested: analyte up to 75 nM)
B7	1.1	0.00019	172000	–	–	–	–
B8	5.7	0.00065	115000	–	–	–	–
B9	–	–	–	0.05	5e-05	1.17e+06	–
B10	–	–	–	1.3	0.00111	882000	–
B11	–	–	–	–	–	–	binding result (IL-13 (in-house) [6]): no binding (tested: analyte up to 20 mM as printed)
B12	–	–	–	1.8	0.00269	1.5e+06	–
B13	–	–	–	0.02	3e-05	1.24e+06	–
B14	–	–	–	0.7	0.00037	528000	fold loss in binding affinity against the parental anti-IL-13 Fab (IL-13 (in-house) [7]): ~10 fold
B15	–	–	–	0.03	3e-05	1.03e+06	–
B16	–	–	–	0.5	0.00044	825000	fold loss in binding affinity against the parental anti-IL-13 Fab (IL-13 (in-house) [7]): ~10 fold
